US20170342107A1 (REGENTS OF THE UNIVERSITY OF MINNESOTA, published 2017)
Like-named read-outs stand apart in the source and are kept apart here. Square brackets hold non-standard residues; d marks the D form. * marks the point of attachment. Phe(4-I) = N[C@@H](Cc1ccc(I)cc1)C(=O)O; dPhe(4-I) = N[C@H](Cc1ccc(I)cc1)C(=O)O; Bta = N[C@@H](Cc1csc2ccccc12)C(=O)O; Tic = O=C(O)[C@@H]1Cc2ccccc2CN1; dTic = O=C(O)[C@H]1Cc2ccccc2CN1; For = O=C*

Columns and labels:
[1] = target: T1, mouse melanocortin-4 receptor (mouse, UniProt P56450 1-332); experiment: cell-based or functional assay
[2] = target: T2, mouse melanocortin-3 receptor (mouse, UniProt P33033 1-323); experiment: cell-based or functional assay
[3] = target: T1, mouse melanocortin-4 receptor; experiment: cell-based or functional assay; remark: listed apart in the source
[4] = target: mouse melanocortin-1 receptor (mouse, UniProt Q01727 1-315); experiment: cell-based or functional assay
[5] = target: T3, mouse melanocortin-5 receptor (mouse, UniProt P41149 1-325); experiment: cell-based or functional assay
[6] = target: T1, mouse melanocortin-4 receptor; experiment: cell-based or functional assay; remark: listed apart in the source
[7] = target: T2, mouse melanocortin-3 receptor; experiment: 125I-NDP-MSH competitive displacement, HEK293 cells stably expressing mMC3R; negative = more potent than control
Source text: (§1) A typical experiment utilized a 12-well format.

[8] = target: T1, mouse melanocortin-4 receptor; experiment: 125I-NDP-MSH competitive displacement, HEK293 cells stably expressing mMC4R; negative = more potent than control
Source text: as §1

[9] = target: T2, mouse melanocortin-3 receptor; experiment: 125I-NDP-MSH competitive displacement, HEK293 cells stably expressing mMC3R
Source text: as §1

[10] = target: T3, mouse melanocortin-5 receptor; experiment: cell-based or functional assay; remark: listed apart in the source
[11] = target: T2, mouse melanocortin-3 receptor; experiment: cell-based or functional assay; remark: listed apart in the source

T2 sequence (P33033 whole entry): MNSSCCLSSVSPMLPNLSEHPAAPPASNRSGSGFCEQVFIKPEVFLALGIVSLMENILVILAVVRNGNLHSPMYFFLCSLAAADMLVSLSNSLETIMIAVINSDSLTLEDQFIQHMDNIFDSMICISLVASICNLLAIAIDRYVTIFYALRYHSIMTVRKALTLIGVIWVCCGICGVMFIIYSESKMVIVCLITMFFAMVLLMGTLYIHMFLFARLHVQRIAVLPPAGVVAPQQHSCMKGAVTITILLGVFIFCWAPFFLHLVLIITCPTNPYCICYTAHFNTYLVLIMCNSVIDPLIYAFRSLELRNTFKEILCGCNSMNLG
T1 sequence (P56450 whole entry): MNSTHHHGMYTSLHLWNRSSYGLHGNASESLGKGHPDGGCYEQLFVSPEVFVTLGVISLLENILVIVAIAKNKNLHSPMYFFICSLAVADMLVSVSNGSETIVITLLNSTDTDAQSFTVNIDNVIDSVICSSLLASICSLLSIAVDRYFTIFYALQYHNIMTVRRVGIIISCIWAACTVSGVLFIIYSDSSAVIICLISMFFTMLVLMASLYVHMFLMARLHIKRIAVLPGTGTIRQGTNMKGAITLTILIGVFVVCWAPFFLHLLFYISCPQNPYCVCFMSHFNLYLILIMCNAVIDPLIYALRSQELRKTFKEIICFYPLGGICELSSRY
T3 sequence (P41149 whole entry): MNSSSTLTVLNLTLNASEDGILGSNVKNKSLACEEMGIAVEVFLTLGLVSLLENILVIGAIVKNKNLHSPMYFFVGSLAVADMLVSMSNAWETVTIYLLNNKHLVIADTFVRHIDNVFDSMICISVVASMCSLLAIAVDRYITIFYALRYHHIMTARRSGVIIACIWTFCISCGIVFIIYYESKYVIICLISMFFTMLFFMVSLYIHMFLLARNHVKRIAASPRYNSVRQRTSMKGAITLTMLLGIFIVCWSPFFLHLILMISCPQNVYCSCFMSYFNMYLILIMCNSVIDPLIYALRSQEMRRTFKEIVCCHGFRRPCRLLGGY
mouse melanocortin-1 receptor, sequence (Q01727 whole entry): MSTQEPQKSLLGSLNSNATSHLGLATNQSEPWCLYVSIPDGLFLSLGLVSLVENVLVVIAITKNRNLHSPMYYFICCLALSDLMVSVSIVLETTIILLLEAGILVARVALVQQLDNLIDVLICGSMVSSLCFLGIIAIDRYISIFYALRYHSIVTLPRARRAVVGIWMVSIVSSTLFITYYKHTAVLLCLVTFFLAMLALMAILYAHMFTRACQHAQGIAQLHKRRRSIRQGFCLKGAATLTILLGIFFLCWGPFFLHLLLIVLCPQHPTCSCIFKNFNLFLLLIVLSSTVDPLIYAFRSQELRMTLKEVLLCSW

B1: SKY5-142-A, For-DPhe-(pI)Phe-DArg-DHis-NH2 (peptide)
peptide: For-[dF][Phe(4-I)][dR][dH]-NH2
SMILES: N=C(N)NCCC[C@@H](NC(=O)[C@H](Cc1ccc(I)cc1)NC(=O)[C@@H](Cc1ccccc1)NC=O)C(=O)N[C@H](Cc1c[nH]cn1)C(N)=O
Antagonist Ki [1]: > 3.1 µM | pA2 (antagonist) [2]: 6.7 pA2 | Agonist, % of NDP-MSH maximal response [3]: 47 % @ 100 µM

Ac-HR[dPhe(4-I)][Tic]-NH2 [SKY6-24-2, Ac-His-Arg-(pI)DPhe-Tic-NH2]
fold increase in agonist potency against SKY5-146-7 [4]: 380 fold | fold increase in agonist potency against SKY5-146-7 [5]: 40 fold

Ac-HR[dPhe(4-I)][Bta]-NH2 [SKY4-48-11, Ac-His-Arg-(pI)DPhe-3Bal-NH2]
Agonist, % of NDP-MSH maximal response [6]: 47 % @ 100 µM | Fold Diff. (IC50 against SKY4-48-1) [7]: -15 fold | Fold Diff. (IC50 against SKY4-48-1) [8]: 2 fold

Ac-FR[dPhe(4-I)][Bta]-NH2 [SKY4-48-15, Ac-Phe-Arg-(pI)DPhe-3Bal-NH2]
IC50 [9]: 5.35 µM | Fold Diff. (IC50 against SKY4-48-1) [7]: -9 fold | Fold Diff. (IC50 against SKY4-48-1) [8]: 7 fold

B2: SKY5-148, For-DTic-(pI)Phe-DArg-DHis-NH2 (peptide)
peptide: For-[dTic][Phe(4-I)][dR][dH]-NH2
SMILES: N=C(N)NCCC[C@@H](NC(=O)[C@H](Cc1ccc(I)cc1)NC(=O)[C@H]1Cc2ccccc2CN1C=O)C(=O)N[C@H](Cc1c[nH]cn1)C(N)=O
Antagonist Ki [1]: > 3.1 µM | pA2 (antagonist) [2]: 6.8 pA2 | Agonist, % of NDP-MSH maximal response [3]: 71 % @ 100 µM | pA2 (antagonist) [3]: 5.4 pA2

B3: SKY5-121, Ac-DTrp-DArg-Phe-DHis-NH2 (peptide)
peptide: Ac-[dW][dR]F[dH]-NH2
SMILES: CC(=O)N[C@H](Cc1c[nH]c2ccccc12)C(=O)N[C@H](CCCNC(=N)N)C(=O)N[C@@H](Cc1ccccc1)C(=O)N[C@H](Cc1c[nH]cn1)C(N)=O
Agonist, % of NDP-MSH maximal response [10]: 29 % @ 100 µM

Ac-SYSMEHRFWGKPV-NH2 [SKY2-125-5, (Arg7, Phe8) α-MSH, Ac-Ser-Tyr-Ser-Met-Glu-His-Arg-Phe-Trp-Gly-Lys-Pro-Val-NH2]
fold decreased agonist potency against α-MSH [11]: 45000 fold
